This note sets out measurements from patent US20250313611A1.

This experiment addresses SARS-COV-2 spike [change] trimer ([change]-foldon-His-Strep) (SARS-CoV-2 (Wuhan)) (UniProt P0DTC2).

In turn, VHH72-S56A returned an IC50 (read off the curve) of 0.6 µg/mL.
